Results published in the supplement of paper PMC10065799, “High-throughput profiling of sequence recognition by tyrosine kinases and SH2 domains using bacterial peptide display” (eLife, 2023).

Key:
[1] = target: c-Src SH2; experiment: SH2 binding enrichment of the phosphorylated peptide, bacterial display (enrichment ratio); higher = better substrate or ligand; peptides without Tyr show the background
[2] = target: Grb2 SH2 (UniProt P62993); experiment: as above
[3] = target: SHP2-C SH2; experiment: as above
[4] = target: FGFR1 (UniProt P11362); experiment: phosphorylation enrichment, bacterial display (enrichment ratio); higher = better substrate or ligand; peptides without Tyr show the background
[5] = target: Fes (UniProt P07332); experiment: as above
[6] = target: Jak2 (UniProt O60674); experiment: as above
[7] = system: AncSZ; experiment: as above
[8] = system: Fer (mouse); experiment: as above
[9] = target: Hck (UniProt P08631); experiment: as above
[10] = target: Fyn (UniProt P06241); experiment: as above
[11] = target: EPHB1 (UniProt P54762); experiment: as above
[12] = target: MERTK (UniProt Q12866); experiment: as above
[13] = system: c-Abl (mouse); experiment: as above
[14] = target: EPHB2 (UniProt P29323); experiment: as above
[15] = target: FGFR3 (UniProt P22607); experiment: as above
[16] = system: c-Src; experiment: as above
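Wherever SH2 binding enrichment of the phosphorylated peptide, bacterial display is given: peptide library displayed on the E. coli surface as eCPX fusions, selected cells deep-sequenced, score is each peptide's frequency after selection divided by its frequency in the input.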
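Wherever phosphorylation enrichment, bacterial display is given: 11-residue human phosphosite peptides and single-mutation variants displayed on the E. coli surface, counted by deep sequencing, each peptide's frequency after selection divided by its frequency in the unselected input library; frequency after pTyr selection over input frequency; kinase dosed for 20-30% of maximal phosphorylation in three min.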

Sequence of FGFR1 (P11362 whole entry, looked up): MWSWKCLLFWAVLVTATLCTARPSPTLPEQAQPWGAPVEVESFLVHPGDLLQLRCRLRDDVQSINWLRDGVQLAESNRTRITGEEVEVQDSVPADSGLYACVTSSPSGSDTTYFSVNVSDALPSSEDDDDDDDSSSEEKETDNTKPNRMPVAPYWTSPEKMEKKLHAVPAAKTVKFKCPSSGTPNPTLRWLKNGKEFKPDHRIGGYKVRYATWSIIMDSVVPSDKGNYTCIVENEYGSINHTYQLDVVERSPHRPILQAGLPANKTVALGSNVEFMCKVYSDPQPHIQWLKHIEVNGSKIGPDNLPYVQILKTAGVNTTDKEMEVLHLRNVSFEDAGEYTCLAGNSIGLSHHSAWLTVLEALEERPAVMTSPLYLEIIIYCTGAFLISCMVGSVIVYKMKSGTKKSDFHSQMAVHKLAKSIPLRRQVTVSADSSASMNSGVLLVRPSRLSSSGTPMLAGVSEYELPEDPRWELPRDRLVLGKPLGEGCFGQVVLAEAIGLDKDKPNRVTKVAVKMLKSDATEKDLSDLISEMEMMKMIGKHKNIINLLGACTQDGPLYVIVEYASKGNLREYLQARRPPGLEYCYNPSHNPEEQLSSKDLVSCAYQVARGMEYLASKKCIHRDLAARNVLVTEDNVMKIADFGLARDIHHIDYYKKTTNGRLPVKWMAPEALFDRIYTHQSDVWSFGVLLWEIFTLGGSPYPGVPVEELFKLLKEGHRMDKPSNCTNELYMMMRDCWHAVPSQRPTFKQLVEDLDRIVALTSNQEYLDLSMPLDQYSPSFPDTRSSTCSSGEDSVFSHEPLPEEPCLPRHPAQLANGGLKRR
Sequence of Fyn (P06241 whole entry, looked up): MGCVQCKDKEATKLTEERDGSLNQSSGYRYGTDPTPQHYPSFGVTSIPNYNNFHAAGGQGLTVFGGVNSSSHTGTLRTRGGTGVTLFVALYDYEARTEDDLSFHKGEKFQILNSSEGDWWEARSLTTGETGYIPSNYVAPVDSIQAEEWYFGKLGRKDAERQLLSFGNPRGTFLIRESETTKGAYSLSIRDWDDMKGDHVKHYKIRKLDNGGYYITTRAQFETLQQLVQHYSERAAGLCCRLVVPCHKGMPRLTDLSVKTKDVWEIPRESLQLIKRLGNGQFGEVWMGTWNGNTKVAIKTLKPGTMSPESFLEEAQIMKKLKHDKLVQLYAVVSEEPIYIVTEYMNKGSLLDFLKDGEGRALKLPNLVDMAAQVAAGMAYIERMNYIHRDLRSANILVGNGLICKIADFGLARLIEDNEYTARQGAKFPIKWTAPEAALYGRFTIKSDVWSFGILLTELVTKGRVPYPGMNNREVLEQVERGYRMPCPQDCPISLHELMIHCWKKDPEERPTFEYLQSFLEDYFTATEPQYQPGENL
Sequence of Jak2 (O60674 whole entry, looked up): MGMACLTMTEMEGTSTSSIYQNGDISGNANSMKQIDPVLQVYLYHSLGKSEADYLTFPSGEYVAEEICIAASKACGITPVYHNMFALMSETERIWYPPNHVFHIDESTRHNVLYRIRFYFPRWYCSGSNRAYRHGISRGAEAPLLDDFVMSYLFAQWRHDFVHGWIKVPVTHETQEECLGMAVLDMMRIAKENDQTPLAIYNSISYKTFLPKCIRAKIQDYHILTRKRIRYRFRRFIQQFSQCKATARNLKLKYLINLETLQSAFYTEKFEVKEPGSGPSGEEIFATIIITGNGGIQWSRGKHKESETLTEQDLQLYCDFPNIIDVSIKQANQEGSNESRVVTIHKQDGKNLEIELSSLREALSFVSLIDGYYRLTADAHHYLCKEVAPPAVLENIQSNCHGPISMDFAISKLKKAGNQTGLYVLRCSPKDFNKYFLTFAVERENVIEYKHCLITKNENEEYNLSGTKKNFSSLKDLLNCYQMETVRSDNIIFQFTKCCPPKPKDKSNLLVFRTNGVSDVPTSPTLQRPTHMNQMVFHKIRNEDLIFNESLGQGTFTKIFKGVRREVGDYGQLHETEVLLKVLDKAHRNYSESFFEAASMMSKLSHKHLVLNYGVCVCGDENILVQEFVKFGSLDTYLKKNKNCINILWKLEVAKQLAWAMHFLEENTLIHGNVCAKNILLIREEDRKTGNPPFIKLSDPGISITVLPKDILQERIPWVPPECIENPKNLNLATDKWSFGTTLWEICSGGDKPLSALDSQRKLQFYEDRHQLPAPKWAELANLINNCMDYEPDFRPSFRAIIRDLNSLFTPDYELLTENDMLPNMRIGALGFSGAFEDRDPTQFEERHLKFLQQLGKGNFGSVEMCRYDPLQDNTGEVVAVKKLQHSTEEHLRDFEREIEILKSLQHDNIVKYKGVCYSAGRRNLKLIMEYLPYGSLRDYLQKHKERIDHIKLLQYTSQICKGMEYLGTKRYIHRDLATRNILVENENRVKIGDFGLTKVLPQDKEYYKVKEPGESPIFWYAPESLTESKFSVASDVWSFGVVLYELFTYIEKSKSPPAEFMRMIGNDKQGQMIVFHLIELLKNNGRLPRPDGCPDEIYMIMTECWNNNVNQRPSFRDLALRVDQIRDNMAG
Sequence of MERTK (Q12866 whole entry, looked up): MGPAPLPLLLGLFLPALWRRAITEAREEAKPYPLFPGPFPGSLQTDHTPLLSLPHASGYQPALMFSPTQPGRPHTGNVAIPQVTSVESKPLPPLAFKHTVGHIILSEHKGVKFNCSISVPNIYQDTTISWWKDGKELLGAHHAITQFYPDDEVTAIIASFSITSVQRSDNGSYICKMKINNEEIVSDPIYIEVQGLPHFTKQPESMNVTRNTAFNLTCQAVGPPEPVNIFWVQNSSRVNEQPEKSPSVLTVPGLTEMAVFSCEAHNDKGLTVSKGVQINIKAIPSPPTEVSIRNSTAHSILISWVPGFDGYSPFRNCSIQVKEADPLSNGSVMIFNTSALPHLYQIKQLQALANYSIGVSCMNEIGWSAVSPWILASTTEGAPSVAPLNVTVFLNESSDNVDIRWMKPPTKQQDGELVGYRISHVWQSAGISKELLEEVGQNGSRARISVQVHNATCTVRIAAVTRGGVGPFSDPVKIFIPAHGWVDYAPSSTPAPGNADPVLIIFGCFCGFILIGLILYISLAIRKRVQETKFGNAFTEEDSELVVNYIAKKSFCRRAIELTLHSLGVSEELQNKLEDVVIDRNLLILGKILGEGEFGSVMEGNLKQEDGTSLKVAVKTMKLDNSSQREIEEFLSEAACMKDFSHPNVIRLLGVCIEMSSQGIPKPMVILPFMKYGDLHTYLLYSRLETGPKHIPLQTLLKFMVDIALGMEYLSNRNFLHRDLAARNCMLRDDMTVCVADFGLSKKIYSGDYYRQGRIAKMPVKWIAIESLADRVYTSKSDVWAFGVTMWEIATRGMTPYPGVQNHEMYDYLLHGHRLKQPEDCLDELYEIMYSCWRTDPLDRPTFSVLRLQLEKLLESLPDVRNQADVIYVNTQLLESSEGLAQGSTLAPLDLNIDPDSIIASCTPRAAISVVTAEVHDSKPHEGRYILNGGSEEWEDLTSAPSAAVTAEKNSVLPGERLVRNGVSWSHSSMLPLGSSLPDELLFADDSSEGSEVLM
Sequence of Fes (P07332 whole entry, looked up): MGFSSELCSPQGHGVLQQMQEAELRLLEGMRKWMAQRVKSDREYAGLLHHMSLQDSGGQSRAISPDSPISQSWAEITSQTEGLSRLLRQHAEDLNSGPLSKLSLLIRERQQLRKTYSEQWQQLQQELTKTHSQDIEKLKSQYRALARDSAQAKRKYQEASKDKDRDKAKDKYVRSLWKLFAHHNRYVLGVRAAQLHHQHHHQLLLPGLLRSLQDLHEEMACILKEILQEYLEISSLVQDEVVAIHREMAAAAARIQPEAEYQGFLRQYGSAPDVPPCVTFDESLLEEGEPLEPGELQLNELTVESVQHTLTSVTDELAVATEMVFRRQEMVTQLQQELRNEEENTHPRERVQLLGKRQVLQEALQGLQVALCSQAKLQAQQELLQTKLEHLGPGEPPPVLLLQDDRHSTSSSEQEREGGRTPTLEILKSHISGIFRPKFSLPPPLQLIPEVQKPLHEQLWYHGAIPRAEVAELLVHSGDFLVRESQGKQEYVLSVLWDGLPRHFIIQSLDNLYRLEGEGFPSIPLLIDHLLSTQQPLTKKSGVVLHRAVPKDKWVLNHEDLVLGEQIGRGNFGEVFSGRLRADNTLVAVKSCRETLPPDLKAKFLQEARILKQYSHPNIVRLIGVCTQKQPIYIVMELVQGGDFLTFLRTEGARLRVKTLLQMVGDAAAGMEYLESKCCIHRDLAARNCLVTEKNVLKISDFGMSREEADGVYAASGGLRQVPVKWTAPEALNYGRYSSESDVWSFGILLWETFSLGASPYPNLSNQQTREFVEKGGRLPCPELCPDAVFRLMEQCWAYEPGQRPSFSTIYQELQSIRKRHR
Sequence of Hck (P08631 whole entry, looked up): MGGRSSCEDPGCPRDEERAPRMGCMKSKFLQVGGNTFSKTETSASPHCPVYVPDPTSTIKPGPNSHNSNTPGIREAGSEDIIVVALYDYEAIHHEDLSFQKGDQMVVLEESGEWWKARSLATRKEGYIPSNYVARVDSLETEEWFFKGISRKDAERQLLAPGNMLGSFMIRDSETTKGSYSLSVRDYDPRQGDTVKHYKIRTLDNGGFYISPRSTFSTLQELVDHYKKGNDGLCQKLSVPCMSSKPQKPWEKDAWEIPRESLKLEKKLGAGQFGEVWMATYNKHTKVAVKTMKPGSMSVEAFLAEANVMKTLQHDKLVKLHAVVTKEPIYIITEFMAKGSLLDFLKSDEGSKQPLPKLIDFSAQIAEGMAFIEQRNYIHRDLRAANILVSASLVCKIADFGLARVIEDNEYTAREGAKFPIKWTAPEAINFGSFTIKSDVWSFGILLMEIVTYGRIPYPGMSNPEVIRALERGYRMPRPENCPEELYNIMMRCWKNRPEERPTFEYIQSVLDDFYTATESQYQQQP

Row | Sequence | SH2 binding enrichment [1] | SH2 binding enrichment [2] | SH2 binding enrichment [3] | phosphorylation enrichment [4] | phosphorylation enrichment [5] | phosphorylation enrichment [6] | phosphorylation enrichment [7] | phosphorylation enrichment [8] | phosphorylation enrichment [9] | phosphorylation enrichment [10] | phosphorylation enrichment [11] | phosphorylation enrichment [12] | phosphorylation enrichment [13] | phosphorylation enrichment [14] | phosphorylation enrichment [15] | phosphorylation enrichment [16]
1 | EILLSYLRTGY [TGM1_Y365] | 0.845 | 1.17 | 1.14 | 0.559 | 1.1 | 1.4 | 1.06 | 0.548 | 0.536 | 0.524 | 0.544 | 0.413 | 0.922 | 0.612 | 0.749 | 0.462
2 | RNGDRYFKEIV [DCX_Y64_G67E] | 0.393 | 0.749 | 0.588 | 0.703 | 0.705 | 0.469 | 0.546 | 0.472 | 0.559 | 0.572 | 0.55 | 0.514 | 0.548 | 0.626 | 1.51 | 0.559
3 | AHAGEYGAGAL [HBA1_Y25_E28G] | 0.403 | 0.776 | 0.589 | 0.365 | 0.539 | 0.608 | 0.575 | 0.384 | 0.49 | 0.405 | 0.376 | 0.395 | 0.616 | 0.434 | 0.485 | 0.489
4 | VVGMLYVGGLP [LAMA2_Y2886] | 0.461 | 0.78 | 0.785 | 0.491 | 1.2 | 1.08 | 0.999 | 0.486 | 0.454 | 0.455 | 0.727 | 0.449 | 0.742 | 0.644 | 0.683 | 0.388
5 | AHPIIYTIIEA [PYKtide_no-pT_2014] | 1.5 | 1.21 | 1.66 | 1.57 | 1.21 | 0.838 | 0.892 | 3.1 | 2.74 | 3.29 | 5.42 | 7.03 | 1.85 | 1.3 | 1.44 | 3.47
6 | AKKKMYSHKTK [AGXT_Y231_R233H] | 1.34 | 1.44 | 1.42 | 0.621 | 1.63 | 3.12 | 0.961 | 1.12 | 0.666 | 0.609 | 1.01 | 0.689 | 1.62 | 0.823 | 2.37 | 0.727
7 | FLQEIYNSNNQ [FGG_Y140_YF] | 0.53 | 0.89 | 1.1 | 0.65 | 1.08 | 0.907 | 1.07 | 0.63 | 1.69 | 1.46 | 0.79 | 0.514 | 0.713 | 0.602 | 0.883 | 1.64
8 | DHPSEYAARQL [ANXA13_Y90_R86H] | 0.483 | 0.826 | 0.657 | 0.496 | 0.633 | 0.576 | 0.657 | 0.365 | 0.525 | 0.454 | 0.352 | 0.453 | 0.66 | 0.494 | 0.445 | 0.482
9 | SGTFQYIIAKF [FOXL2_Y83_I80T_YF] | 0.58 | 0.699 | 0.572 | 0.494 | 1.27 | 0.953 | 1.09 | 0.473 | 0.418 | 0.532 | 0.448 | 0.393 | 0.878 | 0.491 | 0.793 | 0.366
10 | SNKLHYQLEQE [PDPR_Y110_Y109H] | 0.72 | 1.01 | 0.783 | 0.496 | 1 | 0.699 | 0.917 | 0.498 | 0.535 | 0.519 | 0.504 | 0.442 | 0.647 | 0.505 | 0.673 | 0.443
11 | VVPGSYDRLRV [IFT172_Y260_L257P] | 0.818 | 0.772 | 0.912 | 0.394 | 0.603 | 0.462 | 0.496 | 0.332 | 0.486 | 0.359 | 0.353 | 0.469 | 0.406 | 1.13 | 0.439 | 0.399
12 | ENELTYYCYKK [CD59_Y86_C89Y] | 0.45 | 0.793 | 0.65 | 1.68 | 1.69 | 2.25 | 1.92 | 0.685 | 4.79 | 4.74 | 0.794 | 1.36 | 6.18 | 0.752 | 1.53 | 5.18
13 | RKNAKYLLKGE [CDH5_Y82] | 0.749 | 1.19 | 1.06 | 0.712 | 1.37 | 0.827 | 0.779 | 0.666 | 0.577 | 0.64 | 0.848 | 0.718 | 0.901 | 0.821 | 0.545 | 0.687
14 | MEFAKYGSLRG [RET_Y809_V804M_YF] | 0.453 | 1 | 0.729 | 0.514 | 0.628 | 0.495 | 0.604 | 0.348 | 0.49 | 0.456 | 0.427 | 0.417 | 0.454 | 0.629 | 0.448 | 0.484
15 | RVNSAYQDKVS [ACAN_Y100] | 0.455 | 0.784 | 0.679 | 0.513 | 0.796 | 1.36 | 0.849 | 0.437 | 0.396 | 0.517 | 0.642 | 0.498 | 1.06 | 0.648 | 0.567 | 0.484
16 | AEPHTYEEPGR [EPHA8_Y616] | 6.34 | 0.882 | 0.862 | 0.506 | 0.824 | 0.749 | 1.08 | 0.433 | 0.485 | 0.489 | 0.511 | 0.501 | 0.675 | 0.476 | 0.581 | 0.439
17 | FGRTFYNQAIM [MCCC2_Y196] | 0.625 | 0.672 | 0.592 | 0.377 | 1.04 | 0.96 | 1.08 | 0.411 | 0.462 | 0.407 | 0.476 | 0.431 | 0.635 | 0.529 | 0.535 | 0.463
18 | LKEIRYPPYTD [ALDH3B2_Y362_H361R] | 0.555 | 0.883 | 0.729 | 0.539 | 1.06 | 0.827 | 0.761 | 0.541 | 0.678 | 0.31 | 0.348 | 0.518 | 0.749 | 0.589 | 0.702 | 0.494

Now from value to sequence, other results behind:

Row | SH2 binding enrichment [1] | SH2 binding enrichment [2] | SH2 binding enrichment [3] | Sequence | phosphorylation enrichment [4] | phosphorylation enrichment [5] | phosphorylation enrichment [6] | phosphorylation enrichment [7] | phosphorylation enrichment [8] | phosphorylation enrichment [9] | phosphorylation enrichment [10] | phosphorylation enrichment [11] | phosphorylation enrichment [12] | phosphorylation enrichment [13] | phosphorylation enrichment [14] | phosphorylation enrichment [15] | phosphorylation enrichment [16]
19 | 0.598 | 0.815 | 0.6 | EATKGHLDDPT [G6PD_Y322_Y322H] | 0.467 | 1.04 | 0.856 | 0.851 | 0.55 | 0.496 | 0.584 | 0.643 | 0.448 | 0.821 | 0.488 | 0.664 | 0.453
20 | 0.619 | 0.702 | 0.81 | RAIGHYSATSK [FAM120A_Y328_Y327H] | 0.576 | 0.97 | 0.665 | 0.964 | 0.542 | 0.942 | 0.522 | 0.684 | 0.757 | 0.777 | 0.819 | 0.892 | 0.665
21 | 0.537 | 1 | 0.533 | SSQILYKLEQS [THADA_Y701_V699I] | 0.4 | 0.781 | 0.7 | 0.727 | 0.423 | 0.49 | 0.388 | 0.56 | 0.466 | 0.551 | 0.451 | 0.582 | 0.669
22 | 0.442 | 0.8 | 0.889 | LEKRAYICAHP [ACAD9_Y611] | 0.506 | 0.969 | 0.818 | 0.943 | 0.456 | 0.476 | 0.457 | 0.535 | 0.479 | 0.638 | 0.455 | 0.616 | 0.462
23 | 0.469 | 0.784 | 0.836 | LGGSPYPRVPV [FGFR1_Y701_G703R] | 0.47 | 0.55 | 0.507 | 0.435 | 0.444 | 0.412 | 0.429 | 0.356 | 0.4 | 0.483 | 0.426 | 0.471 | 0.426
24 | 0.42 | 0.54 | 0.725 | LIHTKYPQLLP [AHCY_Y143] | 0.639 | 0.81 | 0.679 | 0.808 | 0.395 | 0.428 | 0.449 | 0.642 | 0.6 | 0.575 | 0.562 | 0.573 | 0.379
25 | 0.661 | 0.884 | 1.06 | LQIPMYEVQWK [KIT_Y553_K550I] | 1.14 | 2.04 | 0.721 | 2.5 | 2.54 | 2.24 | 2.45 | 22.6 | 7.37 | 1.01 | 24.1 | 0.848 | 1.55
26 | 0.704 | 0.911 | 0.654 | RLAKRYLIWEC [SCN5A_Y694_Q692K] | 0.64 | 1.06 | 0.852 | 1.15 | 0.626 | 0.505 | 0.375 | 0.607 | 0.503 | 0.771 | 0.604 | 0.812 | 0.486
27 | 0.469 | 0.938 | 1.4 | DKATEYIQYMR [MAX_Y70] | 0.479 | 0.622 | 0.625 | 0.852 | 0.394 | 0.504 | 0.624 | 0.448 | 0.4 | 0.499 | 0.451 | 0.572 | 0.486
28 | 0.591 | 0.732 | 0.554 | HNLDYYKKTTN [FGFR3_Y648] | 0.694 | 1.2 | 0.632 | 0.829 | 0.539 | 0.58 | 0.653 | 0.696 | 0.423 | 0.817 | 0.59 | 0.648 | 0.373
29 | 0.472 | 0.909 | 2.13 | HFGNNYRDVLQ [MACC1_Y803_YF] | 0.711 | 1.72 | 1.06 | 0.851 | 0.558 | 0.594 | 0.614 | 0.648 | 0.64 | 0.848 | 0.627 | 0.68 | 0.65
30 | 0.474 | 0.924 | 0.522 | DKTGEYPVPLT [ACADM_Y73_I78T] | 0.426 | 0.902 | 0.649 | 0.863 | 0.397 | 0.382 | 0.487 | 0.502 | 0.44 | 0.57 | 0.438 | 0.578 | 0.448
31 | 0.361 | 0.897 | 0.594 | DLGIQYKALKP [CTNNA1_Y177] | 0.507 | 0.853 | 0.725 | 0.754 | 0.498 | 0.485 | 0.388 | 0.568 | 0.453 | 0.573 | 0.442 | 0.631 | 0.449
32 | 0.484 | 0.691 | 0.512 | YRASYYRKGGC [ALK_Y1283] | 0.514 | 0.677 | 0.678 | 0.808 | 0.636 | 0.488 | 0.485 | 0.57 | 0.561 | 0.653 | 0.435 | 0.513 | 0.552
33 | 0.975 | 1.25 | 1.42 | RGNKEYKEEKR [LENG1_Y96_E97K] | 0.606 | 0.861 | 0.511 | 0.462 | 0.303 | 0.425 | 0.399 | 0.369 | 0.392 | 0.688 | 0.423 | 0.735 | 0.398
